Data from PMC5961234.

B1: T4WT12W (structured_DNA)
DNA: GGTTGGTGTGGTTGG
modifications: T4 and T12 = W, 5-(indolyl-3-acetyl-3-amino-1-propenyl)-2'-deoxyuridine (written T)

These binders were tested against human alpha-thrombin (Homo sapiens, UniProt P00734;P00734 328-363;364-622) (assay: BLI).

| Binder | Kd [nM] |
| --- | --- |
| GGTTGGTGTGGTTGG (structured_DNA, T4 = K, 5-(methyl-3-acetyl-3-amino-1-propenyl)-2'-deoxyuridine (written T)) [T4K] | 0.39 |
| GGTTGGTGTGGTTGG (structured_DNA, T12 = W, 5-(indolyl-3-acetyl-3-amino-1-propenyl)-2'-deoxyuridine (written T)) [T12W] | 1.3 |
| GGTTGGTGTGGTTGG (structured_DNA, T4 = W, 5-(indolyl-3-acetyl-3-amino-1-propenyl)-2'-deoxyuridine (written T)) [T4W] | 1 |
| B1 | 0.31 |
| GGTTGGTGTGGTTGG (structured_DNA, none) [TBA] | 2.8 |
| GGTTGGTGTGGTTGG (structured_DNA, T7 = W, 5-(indolyl-3-acetyl-3-amino-1-propenyl)-2'-deoxyuridine (written T)) [T7W] | 1.7 |
| GGTTGGTGTGGTTGG (structured_DNA, T3 = W, 5-(indolyl-3-acetyl-3-amino-1-propenyl)-2'-deoxyuridine (written T)) [T3W] | 3.9 |
